# Experimental data published in patent US20210347870A1.
# Changes are numbered by the printed parent chain.
# B1: C2G4 scFv protein (scFv)
# scFv: EVQLLESGGGLVQPGGSLRLSCAASGFTFSNYAMSWVRQAPGKGLEWVSGIPPDSGSKYYADSVRGRFTVSRDNSKNTLYLQMNSLRAEDTAVYYCAKNMLSFDYWGQGTLVTVSSGGGGSGGGGSGGGGSQSVLTQPPSASGTPGQRVTISCTGSSSNIGSNAVSWYQQLPGTAPKLLIYYNSKRPSGVPDRFSGSKSGTSASLAISGLRSEDEADYYCGSWDPSLNGYVFGGGTKVTVLG
# B2: MS501 scFv protein (scFv)
# scFv: EVQLLESGGGLVQPGGSLRLSCAASGFTFSNYAMSWVRQAPGKGLEWVSGIYPDSGSTYYADSVKGRFTISRDNSKNTLYLQMNSLRAEDTAVYYCARNIYTFDYWGQGTLVTVSSGGGGSGGGGSGGGGSQSVLTQPPSASGTPGQRVTISCSGSSSNIGSNAVSWYQQLPGTAPKLLIYYNNQRPSGVPDRFSGSKSGTSASLAISGLRSEDEADYYCGSWDSSLSGYVFGGGTKLTVLG
# B3: MS503 scFv protein (scFv)
# scFv: B2 scFv with G50S, D54G, S55D, R98K, I100A, Y101F, N184S, Q185H, S222T
# Target: mesothelin on MIA PaCa2-MSLN cells (mesothelin-overexpressing human pancreatic cancer cell line) (UniProt Q13421)
# Test: flow cytometry: 1 µg scFv on 1x10^5 MIA PaCa2-MSLN cells, anti-6X His tag antibody detection
# Sequence of UniProt Q13421 (Q13421 other isoform, or with tags, fused parts or gaps limits assumed): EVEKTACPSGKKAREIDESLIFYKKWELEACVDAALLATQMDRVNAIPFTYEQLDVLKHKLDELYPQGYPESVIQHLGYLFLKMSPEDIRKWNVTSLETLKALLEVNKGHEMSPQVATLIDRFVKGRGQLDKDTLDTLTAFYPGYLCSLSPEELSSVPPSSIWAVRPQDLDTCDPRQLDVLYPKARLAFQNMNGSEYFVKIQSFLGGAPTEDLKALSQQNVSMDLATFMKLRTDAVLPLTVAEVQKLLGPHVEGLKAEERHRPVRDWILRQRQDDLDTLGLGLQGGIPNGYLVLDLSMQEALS
row,percent bound [%],Binder
1,> 68,B1
2,> 68,B2
3,> 68,B3
